{"source": "patent US20210139907", "about": "“MATERIALS AND METHODS FOR THE DELIVERY OF THERAPEUTIC NUCLEIC ACIDS TO TISSUES” (UNIVERSITY OF MIAMI, published 2021)", "binders": {"B1": {"name": "1-717 (ssRNA)", "RNA": "GGAGGACGAUGCGGUAAUUCUCAGGAGGUGCGGAACGGGAUAUGGAUUGUUCGCCAGACGACUCGCUGAGGAUCCGAGA", "modifications": "2'-F pyrimidines (2'-F-dCTP, 2'-F-dUTP in selection transcription)"}}, "target": "TMED6 (Homo sapiens, UniProt Q8WW62 Q8WW62:22-240)", "sequence (Q8WW62 22-240, one chain of several)": "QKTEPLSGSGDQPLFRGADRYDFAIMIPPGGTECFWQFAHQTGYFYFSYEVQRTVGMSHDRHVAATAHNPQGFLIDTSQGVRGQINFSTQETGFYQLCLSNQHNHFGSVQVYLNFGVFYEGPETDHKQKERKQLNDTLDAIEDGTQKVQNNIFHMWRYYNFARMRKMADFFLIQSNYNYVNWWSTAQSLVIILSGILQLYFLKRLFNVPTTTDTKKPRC", "experiment": "competition; recombinant TMED6 (aptamer/protein molar ratio 1/1-1/10) dose-dependently inhibits aptamer staining of human pancreas sections", "settings": "tags: HuProt v2.0 protein array (Arrayit); label: Cy3", "description": "To identify the target of aptamer 1-717, protein arrays (HuProt™v2.0, Arrayit) were used. These protein arrays contains more than 19,000 human recombinant proteins allowing, by informatics analysis, the identification of the cognate protein of antibodies, peptides, or protein. This technology has been adapted for the identification of aptamer's ligands. Briefly, pre-blocked arrays were hybridized with 1 μg of cy3 labeled 1-717 or m12-3773 in blocking buffer for 30′ at RT. Arrays were washed, read in triplicate on a Genepix microarray reader and analyzed by an ad hoc generated software. This software 1) acquires the data from the gpr file, 2) adds a description column with (GeneID, Control, blank, ND), 2) use a optimized “plotArray” function modified in several points (the script was implemented for a specific protein array, plus some problem in UTF file format), 3) performs a quality control that includes a microarray image rebuilding the generation of MA plots, 4) normalized the data and substracts the background; and 5) analyze the differential expression between arrays via graphs of p-value distribution, volcano plot, and analysis of significant modulation by t-test. This analysis proposed TMED6 (NM144676.1, protein id Q8WW62) as the most likely ligand of aptamer 1-717. […] Images were acquired by a fluorescence microscope and aptamer binding quantified by cellprofiler.", "data": [{"binder": "B1", "values": [{"measurement": "binding result", "result": "binds"}]}]}
